From US20020188037A1, “Method and system for providing bioactive agent release coating” (priority 1999, published 2002)

Test: Bioactive Agent Release Assay, dextran-TRITC under polymer topcoat on discs (Example 4)
Assay type: physicochemical
Conditions: pEVA/pBMA topcoat coated at 48% relative humidity compared with 10% relative humidity; PBS, 37° C.; FIG. 2
Description: Two solutions were prepared in order to provide a coating composition in the form of a two part system. The first solution was an aqueous solution containing the bioactive agent, dextran-TRITC, at a concentration of 15 mg/ml. […] The poly(n-butyl methacrylate) and poly(ethylene-co-vinylacetate) were purified by extraction with organic solvents to remove impurities, e.g., monomer residues. The polymers of the second solution were dissolved in tetrahydrofuran at a concentration of 10 mg/ml.
Fifteen-millimeter diameter stainless steel discs with an overall thickness of two millimeters were fabricated with a nine-millimeter diameter flat pedestal. […] A surface treatment such as Parylene could be applied to the disc or the surface could be left untreated. The discs were weighed on a microbalance. The aqueous bioactive agent solution was applied to the pedestal surface of the discs with a pipette. The water evaporated from the discs and the discs were re-weighed on a microbalance to obtain the amount of the bioactive agent on the disc. The polymer coating solution containing poly(ethylene-co-vinylacetate) and poly(n-butyl methacrylate) was applied to the entire surface of the disc, covering the dextran. […]
Except as otherwise provided herein, each coated disc was placed in an amber vial with 4 mls of PBS. […] The concentration of bioactive agent in each PBS sample was determined using UV spectroscopy. […]

For “tetramethylrhodamine isothiocyanate-Dextran [dextran-TRITC]”, which “release rate of the bioactive agent from the composite coating” value is on record?
Its value is “faster rate”.
